Data on one substance can be found in US20150238573A1, “NUTRITIONAL FOOD AND FEED, COMPOSITION, PROCESSING AND METHOD OF USE” (Nutrinia Ltd., priority 2004, published 2015).

Bounds are passed on as bounds.

A short description of data set [1]: Influence on vitamin C in the preterm RTF formula. The format is physicochemical. The conditions noted are these: 0, 6 and 12 hours from insulin supplementation.
A short description of data set [2]: Stability in liquid infant formula over time (Elisa kit). The format is physicochemical. From the text:
The InsuMeal™ is intended to be consumed immediately after solubilization in the infant formula. […] Furthermore, in order to evaluate the final product homogeneity, at each time interval, sampling was taken at the upper, middle and lower layers of the sampled RTF bottle, as well as after formula liquid stirring.

Data set [3] in a line: Clinical trials of oral insulin in preterm infants. The format is in vivo, human. From the text:
Clinical trials were done involving supplementation of preterm infant orally-fed with Insulin.

Turning to Insulin, in data set [1], the “vitamin C concentration in formula after insulin supplementation” value is “No significant differences”. Also, the Insulin concentration in data set [2] (0 hour from insulin addition, 100 μU in 60 ml preterm RTF formula) came to 95.43 μU; in data set [2] (3 hour from insulin addition), 105.47 μU; in data set [2] (6 hour from insulin addition), 111.59 μU; in data set [2] (9 hour from insulin addition) it was 93.34 μU; in data set [2] (12 hour from insulin addition), 99.55 μU; in data set [2] (15 hour from insulin addition) it was 105.38 μU. Further, the Insulin concentration in data set [2] (18 hour from insulin addition) was 96.74 μU; in data set [2] (21 hour from insulin addition), 93.78 μU; in data set [2] (24 hour from insulin addition) it was 104.5 μU. Moreover, the “time highly stable after addition to liquid infant formula” value in data set [2] (liquid infant formula) was “at least 24 hr”. Further, the “time to full enteral feeding” value in data set [3] (4 Units per Kg. per day oral for 28 days, control 20 days) is at most 11 days. In addition, the Lactase activity in data set [3] (trial group, control 6.5) stood at 13.3. Moreover, the Gastric residuals in data set [3] (trial group, control 54) was 22.
